In publication PMC4200780, “Biochemical Characterization of a Carboxylesterase from the Archaeon Pyrobaculum sp. 1860 and a Rational Explanation of Its Substrate Specificity and Thermostability” (International Journal of Molecular Sciences, 2014):

Tests used:
Assay in all cases: p-nitrophenol release, Lineweaver-Burk
Assay type in all cases: biochemical, Pyrobaculum ferrireducens
[1] = substrate: CC(=O)Oc1ccc([N+](=O)[O-])cc1; conditions: 50 mM Tris-HCl pH 9.0, 80 °C
From the text: (§1) p-nitrophenol release, Lineweaver-Burk on rP186_1588 ([…]_1588)

[2] = substrate: CCCCCCCCCC(=O)Oc1ccc([N+](=O)[O-])cc1; conditions: 50 mM Tris-HCl pH 9.0, 80 °C, substrate tested at 0.1-3 mM only
From the text: as §1

[3] = substrate: CCCCCCCC(=O)Oc1ccc([N+](=O)[O-])cc1; conditions: 50 mM Tris-HCl pH 9.0, 80 °C
From the text: as §1

[4] = substrate: CCCC(=O)Oc1ccc([N+](=O)[O-])cc1; conditions: 50 mM Tris-HCl pH 9.0, 80 °C
From the text: as §1

B1: rP186_1588 (P186_1588) (Pyrobaculum ferrireducens) (protein)
chain: MSEKYVAVEGRRVRYLVGGSGRPVVLLHGWSFNADTWVESGVFNSLAGHFAVYAIDMPYGIRTKSERFQAPRREYAVFLRRVLDALDLADPPLVGPSASGEVVLWYVAKRLPTRAAVVVGPVGLAGELLEELRGAGVPILAVWGEGDEVSPPSRASLLRDVAKVVILRDAGHAAYLDKPGEFVEVVLDFLRGVY
notes: full length 194 aa (21,131 Da calculated, ~23 kDa on SDS-PAGE), His-tagged, synthetic gene in pET-28a(+) NdeI/BamHI, E. coli BL21(DE3), Ni-NTA purified, tag removal not mentioned
Km [1]: 350 ± 10 µM | kcat [1]: 11.7 ± 0.48 s⁻¹ | kcat/Km [1]: 33300 ± 1370 M⁻¹ s⁻¹ | Km [2]: 4990 ± 210 µM | kcat [2]: 6.19 ± 0.33 s⁻¹ | kcat/Km [2]: 1240 ± 70 M⁻¹ s⁻¹ | Km [3]: 2640 ± 140 µM | kcat [3]: 6.36 ± 0.28 s⁻¹ | kcat/Km [3]: 2410 ± 110 M⁻¹ s⁻¹ | Km [4]: 1270 ± 40 µM | kcat [4]: 9.12 ± 0.62 s⁻¹ | kcat/Km [4]: 7180 ± 190 M⁻¹ s⁻¹
